The source of these data is patent US20230235004A1 (published 2023).

The labels stand for the following.
T1: human MAdCAM expressed on cells (human, UniProt Q13477 19-382)
T1 construct: whole, on cells
T1 sequence (looked up): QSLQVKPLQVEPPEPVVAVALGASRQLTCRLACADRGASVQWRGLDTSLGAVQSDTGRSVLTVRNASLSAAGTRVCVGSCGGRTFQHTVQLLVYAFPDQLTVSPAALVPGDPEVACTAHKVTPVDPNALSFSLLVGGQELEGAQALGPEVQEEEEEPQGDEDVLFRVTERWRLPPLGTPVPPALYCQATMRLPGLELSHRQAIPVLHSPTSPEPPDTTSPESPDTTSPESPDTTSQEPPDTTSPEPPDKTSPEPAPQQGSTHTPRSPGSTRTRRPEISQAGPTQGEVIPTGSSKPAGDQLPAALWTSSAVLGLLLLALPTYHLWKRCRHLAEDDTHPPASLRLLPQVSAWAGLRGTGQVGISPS

T2: mouse MAdCAM expressed on cells (mouse, UniProt Q61826 22-405)
T2 construct: whole, on cells
T2 sequence (looked up): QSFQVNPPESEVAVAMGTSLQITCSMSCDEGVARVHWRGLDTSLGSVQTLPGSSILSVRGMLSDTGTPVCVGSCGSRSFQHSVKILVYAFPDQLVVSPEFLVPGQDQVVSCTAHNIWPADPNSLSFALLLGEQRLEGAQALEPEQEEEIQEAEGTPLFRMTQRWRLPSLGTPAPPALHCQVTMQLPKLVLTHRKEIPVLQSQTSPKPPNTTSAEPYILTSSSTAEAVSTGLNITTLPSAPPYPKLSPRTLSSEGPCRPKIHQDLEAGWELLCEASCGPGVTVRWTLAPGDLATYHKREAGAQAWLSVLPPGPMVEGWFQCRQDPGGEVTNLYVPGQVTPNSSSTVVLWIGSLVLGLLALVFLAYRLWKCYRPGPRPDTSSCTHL

B1: MAdCAM Antibody Table 2 clone 19 (antibody, V domains shown)
VH: EVQLLESGGGLVQPGGSLRLSCAASGFTFEDYAMHWVRQAPGKGLEWVSYLNSDGGSTSYADSVKGRFTISRDNSKNTLYLQMNSLRAEDTAVYYCAKDYCTNGVCAFDYWGQGTLVTVSS
VL: DIQMTQSPSSLSASVGDRVTITCRASQSISTYLNWYQQKPGKAPKLLIYDASNLETGVPSRFSGSGSGTDFTLTISSLQPEDFATYYCQQSYTIPITFGQGTRLEIK
notes: IgG format
B2: MAdCAM Antibody Table 2 clone 34 (antibody, V domains shown)
VH: QVQLVQSGAEVKKPGASVKVSCKASGYTFTGYYIHWVRQAPGQGLEWMGWMNPNSGNTGYAQKFQGRVTMTRDTSTSTVYMELSSLRSEDTAVYYCARDPGFLGYCSGGSCYDGWFDPWGQGTLVTVSS
VL: B1 VL with T31S, N34H, D50A, N53S, E55Q, T56S, I94A, I96Y, R103K
notes: IgG format
B3: MAdCAM Antibody Table 2 clone 13 (antibody, V domains shown)
VH: QVQLVQSGAEVKKPGASVKVSCKASGYTFTTYYMHWVRQAPGQGLEWMGGFDPEDGETIYAQKFQGRVTMTRDTSTSTVYMELSSLRSEDTAVYYCARHAVAGAVGAGYYYYGMDVWGQGTMVTVSS
VL: DIQMTQSPSSLSASVGDRVTITCRASESISNWLAWYQQKPGKAPKLLIYAASTLQSGVPSRFSGSGSGTDFTLTISSLQPEDFATYYCQQSYSVPFTFGPGTKVDIK
notes: IgG format
B4: MAdCAM Antibody Table 2 clone 15 (antibody, V domains shown)
VH: QVQLVQSGAEVKKPGASVKVSCKASGYTFTGYYMHWVRQAPGQGLEWMGWIGPNSGDTNYAQKFQGRVTMTRDTSTSTVYMELSSLRSEDTAVYYCARDLDHNWYFDLWGRGTLVTVSS
VL: DIVMTQSPLSLPVTPGEPASISCRSSQSLLHSNGYNYLDWYLQKPGQSPQLLIYSSSNRAPGVPDRFSGSGSGTDFTLKISRVEAEDVGVYYCMQALHIPLTFGGGTKVEIK
notes: IgG format
B5: MAdCAM Antibody Table 2 clone 18 (antibody, V domains shown)
VH: QVQLVQSGAEVKKPGSSVKVSCKASGYTFTNYYMHWVRQAPGQGLEWMGGIIPIVDRVKYAQKFQGRVTITADESTSTAYMELSSLRSEDTAVYYCAKGRYTVNYYYGMDVWGQGTTVTVSS
VL: DIQMTQSPSSLSASVGDRVTITCQANQDISNYLNWYQQKPGKAPKLLIYRASKLEAGVPSRFSGSGSGTDFTLTISSLQPEDFATYYCQQSSEIPYSFGQGTKLEIK
notes: IgG format
B6: MAdCAM Antibody Table 2 clone 26 (antibody, V domains shown)
VH: EVQLLESGGGLVQPGGSLRLSCAASGFTFSSYAMSWVRQAPGKGLEWVSYISSSSTYTNYADSVKGRFTISRDNSKNTLYLQMNSLRAEDTAVYYCARANSSSWYDWYFDLWGQGTLVTVSS
VL: not shown
notes: IgG format
B7: MAdCAM Antibody Table 2 clone 27 (antibody, V domains shown)
VH: B6 VH with A33Q
VL: not shown
notes: IgG format
B8: MAdCAM Antibody Table 2 clone 1 (antibody, V domains shown)
VH: EVQLLESGGGLVQPGGSLRLSCAASGFTFSSYGMHWVRQAPGKGLEWVAVISDDGSDKYYADSVKGRFTISRDNSKNTLYLQMNSLRAEDTAVYYCTTSKYYYYYGMDVWGQGTTVTVSS
VL: DIQMTQSPSSLSASVGDRVTITCQASQDISKSLNWYQQKPGKAPKLLIYAASSLQSGVPSRFSGSGSGTDFTLTISSLQPEDFATYYCQQGYSTPLTFGGGTKVEIK
notes: IgG format
B9: MAdCAM Antibody Table 2 clone 25 (antibody, V domains shown)
VH: EVQLLESGGGLVQPGGSLRLSCAASGFTFSNAWMSWVRQAPGKGLEWVSTIVGNGGATYYADSVKGRFTISRDNSKNTLYLQMNSLRAEDTAVYYCARDNPLRWQGMDVWGQGTLVTVSS
VL: B3 VL with E27Q, S28D, W32Y, A34N, T53S, V94I, F96P
notes: IgG format
B10: MAdCAM Antibody Table 2 clone 37 (antibody, V domains shown)
VH: EVQLLESGGGLVQPGGSLRLSCAASGFTFSDYGMPWVRQAPGKGLEWVSAISGSGGSTYYADSVKGRFTISRDNSKNTLYLQMNSLRAEDTAVYYCARDGGWQPAAILDYWGQGTLVTVSS
VL: B1 VL with S28G, T31N, Y32N, T93S, I94T, I96L, R103K, L104V
notes: IgG format
B11: MAdCAM Antibody Table 2 clone 12 (antibody, V domains shown)
VH: QVQLVQSGAEVKKPGASVKVSCKASGYTLTTWYMYWVRQAPGQGLEWMGWINPNRGATNYAQKFQGRVTMTRDTSTSTVYMELSSLRSEDTAVYYCAKGDLWGAMDVWGQGTLVTVSS
VL: B8 VL with Q24R, Q27D, D28N, S30G, K31S, S32W, N34A, L96P, G100Q
notes: IgG format
B12: MAdCAM Antibody Table 2 clone 16 (antibody, V domains shown)
VH: EVQLLESGGGLVQPGGSLRLSCAASGFTFDDYAMHWVRQAPGKGLEWVSYIDASGTTIYYADSVKGRFTISRDNSKNTLYLQMNSLRAEDTAVYYCAKDQAAAGYWYFDLWGRGTLVTVSS
VL: B1 VL with R24Q, S28D, T31N, D50K, N53T, T56S, T93S, I94T
notes: IgG format
B13: MAdCAM Antibody Table 2 clone 10 (antibody, V domains shown)
VH: EVQLLESGGGLVQPGGSLRLSCAASGFMFGDYAMHWVRQAPGKGLEWVSAISGSGGSTYYADSVKGRFTISRDNSKNTLYLQMNSLRAEDTAVYYCAKDLVVAGIWYFDLWGRGTLVTVSS
VL: DIQMTQSPSSLSASVGDRVTITCRASQGISNNLNWYQQKPGKAPKLLIYDASSLESGVPSRFSGSGSGTDFTLTISSLQPEDFATYYCQQTHSFPSTFGQGTKLEIK
notes: IgG format
B14: MAdCAM Antibody Table 2 clone 21 (antibody, V domains shown)
VH: EVQLVESGGGLVKPGGSLRLSCAASGFTFSSYWMSWVRQAPGKGLEWVSYISGDSGYTNYAAPVKGRFTISRDDSKNTLYLQMNSLKTEDTAVYYCARANSSGWYDWYFDLWGRGTLVTVSS
VL: not shown
notes: IgG format
B15: MAdCAM Antibody Table 2 clone 35 (antibody, V domains shown)
VH: B2 VH with C106S, C111S
VL: B1 VL with T31S, N34H, D50A, N53S, E55Q, T56S, I94A, I96Y, R103K
notes: IgG format
B16: MAdCAM Antibody Table 2 clone 52 (antibody, V domains shown)
VH: EVQLLESGGGLVQPGGSLRLSCAASGFTFDDYGMSWVRQAPGKGLEWVSYISSSSSYIYYADSVKGRFTISRDNSKNTLYLQMNSLRAEDTAVYYCAREIAAAGFYGMDVWGQGTTVTVSS
VL: not shown
notes: IgG format
B17: MAdCAM Antibody Table 2 clone 9 (antibody, V domains shown)
VH: QVQLVQSGAEVKKPGASVKVSCKASGYTFTSYYMHWVRQAPGQGLEWMGIINHSGGSTSYAQKFQGRVTMTRDTSTSTVYMELSSLRSEDTAVYYCARPYSGWYFAFDIWGQGTLVTVSS
VL: not shown
notes: IgG format
B18: MAdCAM Antibody Table 2 clone 40 (antibody, V domains shown)
VH: B11 VH
VL: B8 VL with Q24R, Q27D, D28N, S30G, K31S, S32W, N34A, L96P, G100Q
notes: IgG format
B19: MAdCAM Antibody Table 2 clone 32 (antibody, V domains shown)
VH: B11 VH
VL: B8 VL with Q24R, Q27D, D28N, S30G, K31S, S32W, N34A, L96P, G100Q
notes: IgG format
B20: MAdCAM Antibody Table 2 clone 33 (antibody, V domains shown)
VH: B11 VH with L113T
VL: B8 VL with Q24R, Q27D, D28N, S30G, K31S, S32W, N34A, L96P, G100Q
notes: IgG format
B21: MAdCAM Antibody Table 2 clone 45 (antibody, V domains shown)
VH: EVQLVESGGGLVKPGGSLRLSCAASGFTFGDYAMSWVRQAPGKGLEWVSYISGDIGYTNYAAPVKGRFTISRDDSKNTLYLQMNSLKTEDTAVYYCARDVAATGNWYFDLWGRGTLVTVSS
VL: not shown
notes: IgG format

Substitutions are numbered along the chain they refer to.

For one test, the target named is T1, human MAdCAM expressed on cells. The test can be described thus: cell binding.
Turning to B1, the binding result is listed as “binds”.

B2: the binding result was “binds”.

B3: the binding result was “binds”.

As to B4, the binding result is on record as “binds”.

Consider B5, for which the binding result is reported as “binds”.

B6: the binding result is “binds”.

In the case of B7, the binding result is given as “binds”.

With B8, the binding result was “binds”.

With B9, the binding result is listed as “binds”.

As to B10, the binding result is on record as “binds”.

With B11, the binding result was “binds”.

In the case of B12, the binding result is listed as “binds”.

As for B13, the binding result is listed as “binds”.

For B14, the binding result is recorded as “binds”.

The target in the next test is T2, mouse MAdCAM expressed on cells. Put plainly: cell binding.
Regarding B1, the binding result was “no binding”.

Consider B2, for which the binding result is on record as “no binding”.

In the case of B15, the binding result was “no binding”.

B16: the binding result is listed as “no binding”.

B3: the binding result was “no binding”.

For the molecule B4, the binding result was “no binding”.

Turning to B17, the binding result is listed as “no binding”.

For the molecule B5, the binding result is “no binding”.

B6: the binding result is “no binding”.

For the molecule B7, the binding result is “no binding”.

Turning to B8, the binding result is listed as “binds”.

On to B9, for which the binding result was “no binding”.

B18: the binding result was “no binding”.

As for B10, the binding result is “no binding”.

Turning to B19, the binding result is listed as “no binding”.

Turning to B11, the binding result is given as “no binding”.

As for B12, the binding result is “no binding”.

Turning to B20, the binding result was “no binding”.

With B21, the binding result was “no binding”.

As to B13, the binding result was “binds”.

Turning to B14, the binding result was “no binding”.
